B1: Arabidopsis PUX3 (natural protein, Arabidopsis thaliana, UniProt Q9SUG6 1-302, looked up)
chain: MSSKDKKLSKPTSGRTGGIRTLSDLNRRSEPDSDSDSDGPQEYFTGGEKSGMLVQDPTKEPKHDDVDEIFNQARQLGAVEGPLEHPSSSRSFTGTGRLLSGESVPTALQQPEPVIHNIIFWSNGFTVDDGPLRKLDDPENASFLDSIRKSECPKELEPVDKRAPVHVNLMRRDEKCPEKEKLKVSFQGVGRTLGGASSSTASSQSNLTDVAAVQSPLQSLVVDETLPSTSIQLRLADGTRMVAKFNNHHTVNDIRGFIEFSRPGNPNNYTLQVMGFPPKPLTDPSQTIEQAGLASSVVIQKF
B2: Arabidopsis PUX4 (natural protein, Arabidopsis thaliana, UniProt Q8RWU7 1-303, looked up)
chain: MSSKDKKPSKPSSSRGGIRTLSDLNRRSGPDSDSDSDGPQEYYTGGEKSGMLVQDPSKKDDVDEIFNQARQLGAVEGPLEPPPSSRSFTGTGRLLSGENVPTGNQQPEPVVHNIVFWSNGFTIDDGPLRKLDDPENASFLESIRKSECPKELEPADRRAPVHVNLMRKEEKCPERQKRRVSFQGVGRTLGGSNEGSGSSSPVAPDSAPIPIQTEPAPSQSLVIDETVPTTSIQLRLADGTRLVAKFNHHHTVNDIRGFIDSSRPGASLNYQLQTMGFPPKPLTDLTQTIEEAGLANSVVLQKF
B3: P-NAD5_(SHP-UBX) (P-NAD5 with helix1 and the SEP domain deleted) (other)
chain: QVQLVESGGALVQPGGSLRLSCAASGFPVNRYSMRWYRQAPGKEREWVAGMSSAGDRSSYEDSVKGRFTISRDDARNTVYLQMNSLKPEDTAVYYCNVNVGFEYWGQGTQVTVSSEPPKPKNPFQGVGRTLGASGSGSSSAPQASSAPMNVAPAPSRGLVVDPAAPTTSIQLRLADGTRLVSRFNNHHTVRDVRGFIDASRPGGSKEYQLLTMGFPPKQLTELDQTIEQAGIANAVVIQKF

target: CDC48A-ND1 (a CDC48A construct containing the N and first ATPase domains) (Arabidopsis thaliana, UniProt P54609 1-484); test: ITC
Sequence (P54609 1-484): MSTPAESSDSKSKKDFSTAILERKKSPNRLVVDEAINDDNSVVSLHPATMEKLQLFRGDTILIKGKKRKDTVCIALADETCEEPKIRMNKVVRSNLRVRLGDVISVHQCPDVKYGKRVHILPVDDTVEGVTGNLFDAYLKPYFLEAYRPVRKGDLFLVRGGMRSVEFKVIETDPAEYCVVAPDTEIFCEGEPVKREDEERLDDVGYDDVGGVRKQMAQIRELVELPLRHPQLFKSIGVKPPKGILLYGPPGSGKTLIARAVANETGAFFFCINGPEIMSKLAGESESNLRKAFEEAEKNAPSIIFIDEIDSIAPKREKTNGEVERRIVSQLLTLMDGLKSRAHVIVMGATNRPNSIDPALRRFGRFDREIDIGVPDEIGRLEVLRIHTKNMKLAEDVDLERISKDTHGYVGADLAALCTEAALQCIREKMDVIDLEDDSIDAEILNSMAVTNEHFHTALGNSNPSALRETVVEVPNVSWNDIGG

| Binder | Kd [µM] | stoichiometry N |
| --- | --- | --- |
| B1 | 5.6 ± 1.6 | ~0.5 |
| B2 | 2.7 ± 0.9 | ~0.5 |
| B3 | 12.3 ± 3.7 | 1 |

Reference: article PMC11315185 (Heliyon, 2024)
